Assays:
[1] = target: bovine HD1 (bovine thymus trapoxin binding proteins p46-p49) (bovine) (UniProt Q32PJ8); experiment: depletion of bovine thymus Mono Q fractions by the K-trap affinity matrix
[2] = target: bovine HD1 (bovine thymus trapoxin binding proteins p46-p49) (bovine) (UniProt Q32PJ8); experiment: cell-based or functional assay

Sequence of bovine HD1 (bovine thymus trapoxin binding proteins p46-p49) (bovine) (Q32PJ8 whole entry): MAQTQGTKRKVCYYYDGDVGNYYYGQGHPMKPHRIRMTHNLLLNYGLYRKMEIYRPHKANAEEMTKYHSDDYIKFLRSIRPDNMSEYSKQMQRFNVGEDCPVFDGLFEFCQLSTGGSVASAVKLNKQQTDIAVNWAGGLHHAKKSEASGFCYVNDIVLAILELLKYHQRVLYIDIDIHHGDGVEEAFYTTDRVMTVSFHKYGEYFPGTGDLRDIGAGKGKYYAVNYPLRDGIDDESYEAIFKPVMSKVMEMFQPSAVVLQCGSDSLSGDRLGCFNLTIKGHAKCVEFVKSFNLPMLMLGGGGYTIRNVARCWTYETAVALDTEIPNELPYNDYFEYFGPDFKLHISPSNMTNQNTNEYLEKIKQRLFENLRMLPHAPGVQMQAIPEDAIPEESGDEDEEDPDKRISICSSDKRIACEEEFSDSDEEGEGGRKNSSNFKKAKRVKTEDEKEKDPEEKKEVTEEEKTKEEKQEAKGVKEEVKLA

| Substance | percent of trapoxin binding and histone deacetylase activity depleted [1] [%] | inhibition of histone deacetylase activity [2] [nM] |
| --- | --- | --- |
| K-trap affinity matrix (peptide) | 90 | – |
| trapoxin (peptide) | – | 20 |
